Data taken from the DeepSol protein solubility set.

Test: soluble on expression in E. coli; label from the status in PepcDB or PDB records

Row | Sequence | soluble on expression in E. coli
1 | MDSARTFESIVIIFNPNSTGDAPELAQQLHGKLKELLTYQPEITLQPTEHAGHAVDLAREAASKGGDVLVVSVSGDGGYNEVVNGVMQADNPRAVAAVLAAGNANDHSRIIGTKPLEEAIAEGRVHNIDLLRIHTGQKENEPLEYAHSYIGFGLTPVVATELEKGSKGALKEMVTVIKSFSEFQPFAIRQSDGKRRKFDSLVFANINEMAKYATLSEAEDHPSDGKFEVIVFPHMPKWRVLLTALKATTQGLGDQPSVSSYEFTTLKPLPYQMDGEVKSVEANVKVTVESAPQALATLG | soluble
2 | MSLESPISEKKPPVIVQEVEQKPEVVEKENILIEQEKEVIKPLDVPLILQKPELMRGCEVTSLAMVLQFSGVKVDKMELASKIHYVPFQSNGLKGNMHKGFIGDMATFDKPGLGVFVEPILELAKLYVPDEKVMNLSYKEPEHIYEAIDRGLPVWVLTNARFKRLPDNQFYTWRTDTGEMKVTYHQHSVVVTDYDDQYVYINDPLKTDKHRAINRNNFEQSWIQMGRQAMTISIEGHHHHHH | not soluble
3 | MNKKMIFFDIDGTIVDEKTHVIPEGTIAAIKKARSNGHLVFINTGRTFFNVPDSIRQIGFDGYVCGCGTYIHINGQTLLEKSISHKRCVEIVEKLRECKLDALLEGQKDFFFDQREPVSEKTLELKSKFGKRGYDVSKSWDDSDIVFDKFVIWTRKESNLEAFKSHISNDFDYIDREDEEGEFGEIVLKGYSKATGIKFLQDYFNIPIEDCYALGDSLNDLPMLQYVPNSIAMGNSSKGLFDLVAFVTKDIMEDGIEYALKHYNII | not soluble
4 | QSSSSAIEATIEGNSQTTISQTSHFIQSYIKKLETTSTGLTQQTDVLAYAENPSQDKVEGIRDLFLTILKSDKDLKTVVLVTKSGQVISTDDSVQMKTSSDMMAEDWYQKAIHQGAMPVLTPARKSDSQWVISVTQELVDAKGANLGVLRLDISYETLEAYLNQLQLGQQGFAFIINENHEFVYHPQHTVYSSSSKMEAMKPYIDTGQGYTPGHKSYVSQEKIAGTDWTVLGVSSLEKLDQVRSQL | not soluble
5 | GDEEKRNRAITARRQHLKSVMLQIAATELEKEEGRREAEKQNYLAEH | soluble
6 | PIPAWASGNLLTQAIRQQYYKPIDVDRMYGTIDSPKLEELFNKS | soluble
7 | MGSDKIHHHHHHMFLEPFFTQTDETVTISPFQASEFAKRVAEDFNPIHDESAKRFCVPGDLLFALVLSHYGLSQKMQFKFEGMVGEGVCLNFPVEVGDSFPICDSRDKTYLSVSRQGDVSRCETQIESFVRSYVSFSGLNFIHVLVPMMREHGVMINPDRPLVIYESMAFDLTTLDFDQVALELSDARLSVDGKRGDVTLEFALISDGKQVGTGVKTLVMSGLRALDEAALDGMAQFYEERRATL | not soluble
8 | KKLCGYLSKFGGKGPIRGWKSRWFFYDERKCQLYYSRTAQDANPLDSIDLSSAVFDCKADAEEGIFEIKTPSRVITLKAATKQAMLYWLQQLQMKRWEFHNSPPAP | soluble
9 | MKKCRICGKKAIIYMPHHRLALCREHFVEWFEKYTERTIKEFKMFTKKDKVLVAISGGKDSLALWHVLRKLGYEADGLYINLGIGEYSEKSKEKVLKFAEKINGKAIIVDLKEELAGIPELVKITSREACSVCGLVKRYNFNKVAKEHGYNVIATGHNLDDEASALLANVLNWNEKYLGRKYPVLEEEAGFVRKVKPFCKFTEKETALYALLNGIDFIEEECPFSEDATSVFYKKILNEIEERSPGTKLRFYLDYLRKIYPKFRKEEEKKELQPCKVCGEPTVGEICPVCRLREKVEASSG | soluble
10 | MKIGIFDSGAGGMTVLKAIREAYPNVDVVYLGDTARVPYGIRSKETIVRYSKECANFLKDKGVDLLVVACNTASAYALEELKREFPFPVFGVIEPGVKEALRKSKTKRIGVIGTQATIKSGAYQEALKRAGAEVYSKACPLFVPLVEEGMIEGEIPKKVVEHYLKDFKGKVDTLILGCTHYPLLKREIQNFLEGVNVIDSSRATAKSLKDFVKNEGSGSLELYFTDRSQNLERLIKLILGEEVEPKITSEVFVL | soluble
11 | MKLLRYGPVGEERPALLDELGEIRDLSAHIEDISGKFLLPATLYKLRQLDSASLPLVRGEQRLGACVGHVGKFICVGLNYADHAAETGAEIPQEPVIFNKWTSAIIGPNDDIEIPRNSVKTDWEVELGVVIGTGGRYIGEANAMSYVAGYCVVNDISEREFQLEHGGTWDKGKGCDTFGPIGPWLVTRDEIPDPHQLGLWLDVDGRRYQNGSTRTMIFKIPQIISYLSRFMSLQSGDVISTGTPPGVGLGQKPPVYLHAGQIMRLGIEGLGEQCQKTIQA | not soluble
12 | MDLPVMPPVKPMLAKSVAKIPPGMHYEAKWDGFRAIVYRDGDEVELGSRTGKPLTRYFPELVVAVRERLPERCVVDGEIVIARDGHLDFDALTERIHPADSRVRTLAERTPASLVAFDLLALDDASLLDVGLADRRALLVRALSGVTPPVHVAPATDDIEVARRWFEQYEGAGLDGVVAKPLDLRYRQDERAMYKIKHERTADVVVAGYRFHKSGPVVGSLLLGLYDDRGLLQHVGVSAAFTMKRRAELVAELEPLRMDDARGHPWAAWAEEAAHESARLPGAPSRWSGKKDLSWVPLRPERVVEVAYDHMENGARFRHTARFRRWRPDRTPESCTYAQLEEPVRYDLAEILGGPLEHHHHHH | not soluble
13 | MINNVLVWKQPNISWIHPINIDNSINANNFNFDYLDTLNKLRSSNLKILELRDIADKISDGPFGSQLKVEEYKEQGFPVYRVKNIIDTQILDDDIVYIDAKKQQQLKRSEVLPGDVLITKAGRIGSAAVVPSKFGNGNITSHLVLVRLKKTINNYYLVAYLECKYGKVITGRESYKSTRPELTKNEIGNVIIPIPSPEIQKYIGDKVRKAEELREEAKRLKKEAETFLYEMIQLKPLNDFDKDMFSFVNSNYIDSERLDSEYYKTKYITLEKLLKSKKVTSFKDIIIESKYGASVPADYTMVGIPFIRGNNLTDNEINIDDIVYLNKKLKDEVKDHHVNTGDILITRSGTVGISAVVDEKCDGFSFGSFMIKLRIDMRIWNPYYIAAFLNSFWGKWQIERLQNGAVQQNINLQEIGRIIIPIISKENQDKIEELIKNYINKKRQSKQLIQEAKQDVEDLIEGNFDMSKVKANS | soluble
14 | AIAQNDAGEFVDLYVPRKCSASNRIIGAKDHASIQMNVAEVSWEPGRREGCDICAGKAGCPIVEEPLG | soluble
15 | MGSDKIHHHHHHMKNLFLFCRAGFEKECAAEIQQRAGELNVGGFVKANNNDAYVVYQCFEEDAADTLVKQLPLDSLIFARQMFAASDLLVDLPESDRISPIVAALSDVSKAGEVRVETPDTNEAKELSAFCRKFTVPLRQHLKKSGSLLAQENPKRPIIHVCFIGPGRAYVGYSYSNNSSPHFMGIPRLKMAADAPSRSSLKLDEAFGQFVPKEEQEERIRSGMNAVDLGACPGGWTYQLVRRGMFVSAVDNGPMDEKLMETGQVKHYREDGFRFEPQRKNIYWLVCDMVRPSSL | not soluble
16 | MSLYVKMMEMGRMIDNCLYCGSATLLSIIHLANGKNAVTCGKCGLTRTIPVPSAEYSEVAEYFENYLLKEKLFRAFSRKLLDFVLSVVQNGRLLEVGCSVGFFLEEAKRAGFSVNGVELNEKAATLSKGKDFDVRNCMLREAGFPSHEFDVVVMSHVLEHIQDLREFLADIKVLLRPGGKVIVSQPTPDGIVPKMQKKKWYGWVPNEHVWHFTPKTLSLVFAENGFDVVKVERNSMYYSLWPSSLRGILVALVARTAAVLGLGDQFYLAATVSEKDSEGHHHHHH | not soluble
17 | MGSDKIHHHHHHMTVCIACGSTKVEPFLDLHETTLANKFLAPEEIGAVEPRHPLVVGFCPECSHVQLTHLVPPAAMFEDYLYISSLSKTLVGHLHGLAATVIERFKLGADDLFIDVGCNDGTLLSEAKRRGVRILGIDPAKNLAPLAKKNGVDTLVAFFGTETAAKVVAEHGKASVVTATNVFPHIPVLDDLVKGLDVVLKPGGVFVAEAHYLGDLLDACAFDTVYHEHCSYWSLHAAQYMFQRHGFEVVDIQRLPIHHGQLRLFAMRKGEGQPTAAVATLLAEEVKRGMTGIECYRAFAKRVEAIREELHAAFAGFKAAGKTVVGYGAPAKGNTLLSYIGFGPEQLAYIADKSPLKQGRVTPGTHIPVVGPERLLADQPDYVLLLAWNFADEILVEQAEYRARGGKFILPVPEVKIV | not soluble
